# B1: 25bp duplex DNA (dsDNA)
# DNA 1: AGCATTGACTGGCATCGTAGCATCC
# DNA 2: GGATGCTACGATGCCAGTCAATGCT
# B2: LINP1 (1-300) (structured_RNA)
# RNA: CCCUCCGUCUCCUUGACUCUGGGUGGGCUGUGUGACUUUUCCUUGCUCAAUAGAAUGAGAAGGAGGUGGCGCACCGGCUACAAGGCUAGACCGGGGGCUCGCAUAUCUCCACUUGCAGCUGCCACUGCCAUUAGAAGAACUUGCUCAGCCAGCUCCUGGGCCCCAGGAAAAGGACAAGUGUCACCCAGAACAGAGCCACCUCCAGCUGCACUCAGCUCCAGAAGCUGGCCCAGCCGGUCCAGUACACCUUUUAAAUAAUGUCCUCUACGUGCCGGUGUGGAAGUAGCCCGGAUGCAAUUG
# B3: d50 DNA (dsDNA)
# DNA 1: CTCTTGGTGATTATGGTTGCAATACATTTAATTTCATTATCAATTAG
# DNA 2: CTAATTGATAATGAAATTAAATGTATTGCAACCATAATCACCAAGAG
# B4: Fork substrate (dsDNA)
# DNA 1: CGCGCCCAGCTTTCCCAGCTAATAAACTAAAAACTCCTAAGG
# DNA 2: CCTTAGGAGTTTTTAGTTTATTGGGCGCG
# Experiments:
# [1] = molecular target: T1, Ku70/Ku80 heterodimer FL (baculovirus) (human, UniProt P12956;P13010 1-609;1-718); test: EMSA; Ku preparation not stated; MST: 50 mM Tris pH 8.0, 50 mM NaCl, 1 mM DTT, 24 C, 40 nM FAM-RNA; EMSA: 25 mM Hepes-KOH pH 7.5, 50 mM NaCl, 1 mM DTT, 1 mM EDTA, 10% glycerol, 0.1 uM BSA, room temperature, 25 min; details: protein: recombinant; tags: His (Ku80); copies: 1;1; label: 5'-FAM; G4
# [2] = molecular target: T1, Ku70/Ku80 heterodimer FL (baculovirus); test: MST; MST: 50 mM Tris pH 8.0, 50 mM NaCl, 1 mM DTT, 24 C, 40 nM FAM-RNA; EMSA: 25 mM Hepes-KOH pH 7.5, 50 mM NaCl, 1 mM DTT, 1 mM EDTA, 10% glycerol, 0.1 uM BSA, room temperature, 25 min; details: protein: recombinant, tags: His (Ku80), copies: 1;1, label: 5'-FAM
# [3] = molecular target: T2, Ku70/Ku80 heterodimer FL (baculovirus);XLF (human;human?, UniProt P12956;P13010;Q9H9Q4 1-609;1-718;1-299, |); test: EMSA; supershift; MST: 50 mM Tris pH 8.0, 50 mM NaCl, 1 mM DTT, 24 C, 40 nM FAM-RNA; EMSA: 25 mM Hepes-KOH pH 7.5, 50 mM NaCl, 1 mM DTT, 1 mM EDTA, 10% glycerol, 0.1 uM BSA, room temperature, 25 min; details: protein: recombinant;recombinant, tags: His (Ku80);, copies: 1;1;2, label: 5'-FAM
# [4] = molecular target: Ku70/Ku80 heterodimer FL (baculovirus);PAXX (human;human?, UniProt P12956;P13010;Q9BUH6 1-609;1-718;1-204, |); test: as above; details: protein: recombinant;recombinant; tags: His (Ku80);GST cleaved; copies: 1;1;2; label: 3'-FAM on lower strand; blunt
# [5] = molecular target: T2, Ku70/Ku80 heterodimer FL …; test: EMSA; supershift; Ku preparation not stated; MST: 50 mM Tris pH 8.0, 50 mM NaCl, 1 mM DTT, 24 C, 40 nM FAM-RNA; EMSA: 25 mM Hepes-KOH pH 7.5, 50 mM NaCl, 1 mM DTT, 1 mM EDTA, 10% glycerol, 0.1 uM BSA, room temperature, 25 min; details: protein: recombinant;recombinant; tags: His (Ku80);; copies: 1;1;2; label: 3'-FAM on lower strand; blunt
# [6] = molecular target: T1, Ku70/Ku80 heterodimer FL (baculovirus); test: MST; Hill 1.0; MST: 50 mM Tris pH 8.0, 50 mM NaCl, 1 mM DTT, 24 C, 40 nM FAM-RNA; EMSA: 25 mM Hepes-KOH pH 7.5, 50 mM NaCl, 1 mM DTT, 1 mM EDTA, 10% glycerol, 0.1 uM BSA, room temperature, 25 min; details: protein: recombinant; tags: His (Ku80); copies: 1;1; label: 5'-FAM stated for MST RNAs
# Ku dCTR = Ku dCTR (human, UniProt P12956;P13010 1-609;1-569); test: MST; MST: 50 mM Tris pH 8.0, 50 mM NaCl, 1 mM DTT, 24 C, 40 nM FAM-RNA; EMSA: 25 mM Hepes-KOH pH 7.5, 50 mM NaCl, 1 mM DTT, 1 mM EDTA, 10% glycerol, 0.1 uM BSA, room temperature, 25 min; details: protein: recombinant; copies: 1;1; label: 5'-FAM; hairpin with bulge
# [7] = molecular target: T1, Ku70/Ku80 heterodimer FL (baculovirus); test: MST; Hill 1.75; MST: 50 mM Tris pH 8.0, 50 mM NaCl, 1 mM DTT, 24 C, 40 nM FAM-RNA; EMSA: 25 mM Hepes-KOH pH 7.5, 50 mM NaCl, 1 mM DTT, 1 mM EDTA, 10% glycerol, 0.1 uM BSA, room temperature, 25 min; details: protein: recombinant; tags: His (Ku80); copies: 1;1; label: 5'-FAM; blunt
# Ku5D = Ku5D (human, UniProt P12956;P13010 1-609;1-718, T305D;S306D;T307D;S314D;T316D); test: MST; 20-fold weaker than WT; MST: 50 mM Tris pH 8.0, 50 mM NaCl, 1 mM DTT, 24 C, 40 nM FAM-RNA; EMSA: 25 mM Hepes-KOH pH 7.5, 50 mM NaCl, 1 mM DTT, 1 mM EDTA, 10% glycerol, 0.1 uM BSA, room temperature, 25 min; details: protein: recombinant; copies: 1;1; label: 5'-FAM on strand 1; fork; 42-mer/29-mer
# Sequence of Ku5D (P12956 whole entry T305D/S306D/T307D/S314D/T316D, chain 1 of 2): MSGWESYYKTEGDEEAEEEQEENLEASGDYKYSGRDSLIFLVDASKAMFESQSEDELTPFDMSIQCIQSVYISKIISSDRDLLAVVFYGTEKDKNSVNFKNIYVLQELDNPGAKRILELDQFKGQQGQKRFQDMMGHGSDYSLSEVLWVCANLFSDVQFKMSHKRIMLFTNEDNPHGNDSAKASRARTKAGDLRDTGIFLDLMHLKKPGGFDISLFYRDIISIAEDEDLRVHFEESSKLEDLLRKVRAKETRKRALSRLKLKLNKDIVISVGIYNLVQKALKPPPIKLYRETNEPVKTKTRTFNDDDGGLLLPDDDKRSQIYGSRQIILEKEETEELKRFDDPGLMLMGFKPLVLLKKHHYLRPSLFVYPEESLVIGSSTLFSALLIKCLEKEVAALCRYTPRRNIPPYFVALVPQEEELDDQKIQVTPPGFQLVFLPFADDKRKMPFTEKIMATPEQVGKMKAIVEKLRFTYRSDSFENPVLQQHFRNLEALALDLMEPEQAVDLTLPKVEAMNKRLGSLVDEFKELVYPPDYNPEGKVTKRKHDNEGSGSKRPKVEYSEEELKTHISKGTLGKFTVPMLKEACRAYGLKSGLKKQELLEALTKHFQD
# Sequence of Ku5D (P13010 1-718, chain 2 of 2): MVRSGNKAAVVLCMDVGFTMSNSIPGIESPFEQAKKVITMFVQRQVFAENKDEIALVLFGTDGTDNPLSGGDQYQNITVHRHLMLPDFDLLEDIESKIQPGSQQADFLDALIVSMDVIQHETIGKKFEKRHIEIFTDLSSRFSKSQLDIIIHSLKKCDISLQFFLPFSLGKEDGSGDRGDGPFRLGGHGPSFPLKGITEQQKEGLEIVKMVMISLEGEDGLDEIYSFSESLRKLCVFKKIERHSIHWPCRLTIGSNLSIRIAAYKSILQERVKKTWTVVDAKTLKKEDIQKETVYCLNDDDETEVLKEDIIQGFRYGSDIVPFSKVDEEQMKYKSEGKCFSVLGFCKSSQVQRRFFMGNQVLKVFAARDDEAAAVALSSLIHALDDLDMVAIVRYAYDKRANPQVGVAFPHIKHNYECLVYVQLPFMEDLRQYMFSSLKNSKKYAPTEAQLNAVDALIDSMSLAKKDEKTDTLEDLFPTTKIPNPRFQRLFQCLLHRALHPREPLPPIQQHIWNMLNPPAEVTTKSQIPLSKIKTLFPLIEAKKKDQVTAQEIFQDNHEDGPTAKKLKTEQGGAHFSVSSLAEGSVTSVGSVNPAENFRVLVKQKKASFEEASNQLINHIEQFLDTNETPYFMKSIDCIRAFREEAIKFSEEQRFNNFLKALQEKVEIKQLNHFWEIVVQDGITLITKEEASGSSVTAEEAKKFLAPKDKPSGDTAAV
# T1 sequence (P12956 whole entry, chain 1 of 2): as the sequence (P12956 whole entry T305D/S306D/T307D/S314D/T316D, chain 1 of 2) above, with D305T, D306S, D307T, D314S, D316T counted along it
# T1 sequence (P13010 1-718, chain 2 of 2): as the sequence (P13010 1-718, chain 2 of 2) above
# T2 sequence (P12956 whole entry, chain 1 of 3): as the sequence (P12956 whole entry T305D/S306D/T307D/S314D/T316D, chain 1 of 2) above, with D305T, D306S, D307T, D314S, D316T counted along it
# T2 sequence (P13010 1-718, chain 2 of 3): as the sequence (P13010 1-718, chain 2 of 2) above
# T2 sequence (Q9H9Q4 whole entry, chain 3 of 3): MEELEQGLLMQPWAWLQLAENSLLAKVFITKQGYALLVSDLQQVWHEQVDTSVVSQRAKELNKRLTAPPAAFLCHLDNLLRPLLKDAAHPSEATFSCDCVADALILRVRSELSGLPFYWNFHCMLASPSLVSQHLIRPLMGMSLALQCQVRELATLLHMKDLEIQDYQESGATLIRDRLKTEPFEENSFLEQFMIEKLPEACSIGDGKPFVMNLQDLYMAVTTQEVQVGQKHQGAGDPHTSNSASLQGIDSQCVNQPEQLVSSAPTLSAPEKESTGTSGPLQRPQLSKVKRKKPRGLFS
# Sequence of Ku70/Ku80 heterodimer FL (baculovirus);PAXX (P12956 whole entry, chain 1 of 3): as the sequence (P12956 whole entry T305D/S306D/T307D/S314D/T316D, chain 1 of 2) above, with D305T, D306S, D307T, D314S, D316T counted along it
# Sequence of Ku70/Ku80 heterodimer FL (baculovirus);PAXX (P13010 1-718, chain 2 of 3): as the sequence (P13010 1-718, chain 2 of 2) above
# Sequence of Ku70/Ku80 heterodimer FL (baculovirus);PAXX (Q9BUH6 whole entry, chain 3 of 3): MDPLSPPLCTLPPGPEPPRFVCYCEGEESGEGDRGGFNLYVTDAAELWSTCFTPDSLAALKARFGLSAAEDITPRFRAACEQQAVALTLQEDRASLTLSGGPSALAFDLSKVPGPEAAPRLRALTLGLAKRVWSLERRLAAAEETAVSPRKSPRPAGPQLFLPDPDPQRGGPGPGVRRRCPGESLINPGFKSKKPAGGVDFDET
# Sequence of Ku dCTR (P12956 whole entry, chain 1 of 2): as the sequence (P12956 whole entry T305D/S306D/T307D/S314D/T316D, chain 1 of 2) above, with D305T, D306S, D307T, D314S, D316T counted along it
# Sequence of Ku dCTR (P13010 1-569, chain 2 of 2): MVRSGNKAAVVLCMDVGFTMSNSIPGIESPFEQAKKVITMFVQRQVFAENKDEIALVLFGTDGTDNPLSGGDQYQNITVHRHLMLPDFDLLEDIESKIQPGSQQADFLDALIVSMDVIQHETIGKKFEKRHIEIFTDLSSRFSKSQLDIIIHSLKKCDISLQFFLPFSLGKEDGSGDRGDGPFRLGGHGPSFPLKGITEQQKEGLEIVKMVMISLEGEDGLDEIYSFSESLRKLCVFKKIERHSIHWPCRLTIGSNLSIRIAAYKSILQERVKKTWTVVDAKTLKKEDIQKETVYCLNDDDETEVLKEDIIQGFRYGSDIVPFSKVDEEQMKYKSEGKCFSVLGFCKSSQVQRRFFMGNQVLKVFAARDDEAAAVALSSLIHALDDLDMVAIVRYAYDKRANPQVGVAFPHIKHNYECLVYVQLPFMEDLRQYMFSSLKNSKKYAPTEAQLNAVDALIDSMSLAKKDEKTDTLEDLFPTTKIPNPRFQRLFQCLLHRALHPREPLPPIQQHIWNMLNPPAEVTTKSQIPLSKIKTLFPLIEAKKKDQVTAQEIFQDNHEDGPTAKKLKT
binder,measurement,setting,value
TTAGGGTTAGGGTTAGGGTTAGGG (structured_DNA) [DNA G-quadruplex],binding result,[1],no binding
AAGGCUAGACCGGGGGCUCGCAUUUCUUUUUUUGCAGCUGCCACUGCCA (structured_RNA) [SL3-LM],Kd,[2]; hairpin,2370 ± 1040 nM
AAGGCUAGACCGGGGGCUCGCAUAUCUCCACUUGCAGCUGCCACUGCCA (structured_RNA) [SL3],Kd,[2]; hairpin with bulge,840 ± 450 nM
same,binding result,[3]; hairpin with bulge,binds
CCCUCCGUCUCCUUGACUCUGGG (structured_RNA) [SL1],Kd,[2]; hairpin,1690 ± 700 nM
B1,binding result,[4],binds
same,binding result,[5],binds
B2,Kd,[6],1920 ± 330 nM
UAGGGUUAGGGU (structured_RNA) [TERRA G-quadruplex],Kd,[2]; G4 (multimeric),430 ± 180 nM
AACCGUAGACCCCGUCGACCGUUAUCUCCACUACGUCGGGGGACUGGGA (structured_RNA) [SL3-BT],Kd,[2]; hairpin,1870 ± 360 nM
UGACUUUUCCUUGCUCAAUAGAAUGAGAAGGAGGUGGCG (structured_RNA) [SL2],Kd,Ku dCTR,1020 ± 180 nM
same,Kd,[2]; hairpin with bulge,900 ± 170 nM
same,binding result,[3]; hairpin with bulge,binds
UGACUUUUCCUUGCUCAUUUUUUUGAGAAGGAGGUGGCG (structured_RNA) [SL2-LM],Kd,[2]; hairpin,1620 ± 470 nM
B3,Kd,[7],19 ± 19 nM
CCUGGGGUAGGAGAGGGUAUGGGGACCAGGGCACU (structured_RNA) [LINP1 GQ1],Kd,[2]; G4,110 ± 40 nM
same,binding result,[3]; G4,binds
UGACUGGAGGAAGGAGUAUAGAAACUCUUCCUUUUGGCG (structured_RNA) [SL2-BT],Kd,[2]; hairpin,6050 ± 9400 nM
B4,Kd,Ku5D,~15 µM
